# Experimental data published in patent US20230331821A1 (VIR BIOTECHNOLOGY, published 2023).
# Where two headings read alike, the source gives them in different places.
# B1: S315 rIgG1-MLNS (antibody, V domains shown)
# VH: EVQLVESGGGLVQPGGSLRLSCAASGFTFSNYWMTWVRQAPGKGLEWVANIKQDGSEKYYVDSVKGRFTISRDNAKNSLYLQMNSLRAEDTAVYYCARDLWWNDQAHYYGMDVWGQGTTVTVSS
# VL: SYELTQPPSVSVSPGQTARITCSGDAFPNQYAYWYQQKPGQAPVMLIYKDSERPSGIPERFFGSSSGTTVTLTIRGVQAEDEADYYCQSADSSGTVFGGGTKLTVL
# B2: SARS-CoV-2 S303 mAb (B cell supernatant) (antibody, V domains shown)
# VH: EVQLVESGGGLVKPGGSLRLSCAASGFTFLTYSMNWVRQTPGKRLQWVSAISGSGGATYYADSVKGRFTISRDNSKNTLYLQMNTVTADDTAIYFCARERDDIFPMGLNAFDIWGQGAMVIVSS
# VL: DIQMTQSPSTLSASVGDRVTITCRASQSISNWLAWYQQKPGKAPKLLIYKASSLESGVPSRFSGSGSGTEFTLTISSLQPDDSATYYCQQYDTYSWTFGQGTKVEIK
# B3: S303-rIgG1-LS (antibody, V domains shown)
# VH: EVQLVESGGGLVKPGGSLRLSCAASGFTFLTYSMNWVRQTPGKRLQWVSAISGSGGATYYADSVKGRFTISRDNSKNTLYLQMNTVTADDTAIYFCARERDDIFPMGLNAFDIWGQGAMVIVSS
# VL: DIQMTQSPSTLSASVGDRVTITCRASQSISNWLAWYQQKPGKAPKLLIYKASSLESGVPSRFSGSGSGTEFTLTISSLQPDDSATYYCQQYDTYSWTFGQGTKVEIK
# B4: S303 rIgG1 (antibody, V domains shown)
# VH: EVQLVESGGGLVKPGGSLRLSCAASGFTFLTYSMNWVRQTPGKRLQWVSAISGSGGATYYADSVKGRFTISRDNSKNTLYLQMNTVTADDTAIYFCARERDDIFPMGLNAFDIWGQGAMVIVSS
# VL: DIQMTQSPSTLSASVGDRVTITCRASQSISNWLAWYQQKPGKAPKLLIYKASSLESGVPSRFSGSGSGTEFTLTISSLQPDDSATYYCQQYDTYSWTFGQGTKVEIK
# B5: SARS-CoV-2 S308 mAb (B cell supernatant) (antibody, V domains shown)
# VH: QVQLVESGGGVVQPGRSLRLSCAASRFTFSSYGMHWVRQAPGKGLEWVAVIWHDGNNKHYGDSVKGRVTISRDNSKNTLYLQMTSLRAEDTAVYYCARAVTTFKGSGRARMRGMDVWGQGTTVTVSS
# VL: DIQLTQSPSFLSASVGDRVTITCRASQGINTYLAWYQQKPGKAPKLLIYAASTLQSGVPSRFSGSGSGTEFTLTISSLQPEDFATYYCQHLDTYPFTFGPGTKVDIK
# B6: SARS-CoV-2 S304 mAb (B cell supernatant) (antibody, V domains shown)
# VH: EVQLVESGGGLVQPGGSLRLSCAASGFTFSSYDMHWVRQTTGKGLEWVSTIGTAGDTYYPDSVKGRFTISREDAKNSLYLQMNSLRAGDTAVYYCARGDSSGYYYYFDYWGQGTLLTVSS
# VL: DIQMTQSPSSLSAAVGDRVTITCRASQSIGSYLNWYQQKPGKAPKLLIYAASSLQSGVPSRFSGSGSGTDFTLTISSLQPEDFAIYYCQQSYVSPTYTFGPGTKVDIK
# B7: S304-rIgG1-LS (antibody, V domains shown)
# VH: EVQLVESGGGLVQPGGSLRLSCAASGFTFSSYDMHWVRQTTGKGLEWVSTIGTAGDTYYPDSVKGRFTISREDAKNSLYLQMNSLRAGDTAVYYCARGDSSGYYYYFDYWGQGTLLTVSS
# VL: DIQMTQSPSSLSAAVGDRVTITCRASQSIGSYLNWYQQKPGKAPKLLIYAASSLQSGVPSRFSGSGSGTDFTLTISSLQPEDFAIYYCQQSYVSPTYTFGPGTKVDIK
# B8: S310 (antibody, V domains shown)
# VH: QVQLVQSGAELKKPGSSVKVSCKASGGTFNSYSFNWVRQAPGQGLEWLGGIIPVLGTSNYAQKFQGRVAVTADEFTTTAYMELSSLRSEDTAVYYCATRTYDSSGYRPYYYGLDVWGQGTPVTVSS
# VL: QSALTQPASVSGSPGQSITISCTGTSSDVGSYNLVSWYQQRPGKAPELMIYEVTKRPSGLSNRFSGSKSGNTASLTISGLQAEDEADYYCCSYAGSDTVIFGGGTKVTVL
# B9: S110 (antibody, V domains shown)
# VH: QVQLVESGGGLVQAGGSLRLSCAASGRTFSSAGMAWFRQAPGKEREFVATSNWNGGDTDYADSVKGRFTISRDNAKNTVYLQMNNLKPEDTAVYYCAAHLQKYGGDYYARIWGQGTQVTVS
# B10: SARS-CoV-2 S306 mAb (B cell supernatant) (antibody, V domains shown)
# VH: QVQLVQSGAEVKKPGASVKVSCKASTYTFTSFGISWVRQAPGQGLEWMGWITTYSGDTNYAQKFQGRVTMTTDTSTNTAYMELRSLRSDDTAVYYCASDYFDSSGYYHSFDYWGQGTLVTVSS
# VL: EIVLTQSPDTLSLSPGERATLSCRASQSVSSYLAWYQQRPGQAPRLLIYDASKRATGIPARFSGSGSGTDFTLTISSLEPEDFAVYYCQQRSNWPPGCSFGQGTKVEIK
# B11: S306 (antibody, V domains shown)
# VH: QVQLVQSGAEVKKPGASVKVSCKASTYTFTSFGISWVRQAPGQGLEWMGWITTYSGDTNYAQKFQGRVTMTTDTSTNTAYMELRSLRSDDTAVYYCASDYFDSSGYYHSFDYWGQGTLVTVSS
# VL: EIVLTQSPDTLSLSPGERATLSCRASQSVSSYLAWYQQRPGQAPRLLIYDASKRATGIPARFSGSGSGTDFTLTISSLEPEDFAVYYCQQRSNWPPGCSFGQGTKVEIK
# Legend:
# [1] = target: T1, SARS-CoV-2 RBD (produced in house in Expi-CHO cells; residues 331-550 of spike) (SARS-CoV-2 BetaCoV/Wuhan-Hu-1/2019, UniProt P0DTC2 331-550); experiment: ELISA, antigen coated on the plate, OD 405 nm
# [2] = target: T1, SARS-CoV-2 RBD (produced in house in …); experiment: ELISA, antigen coated on the plate, OD 405 nm; remark: listed apart in the source
# [3] = target: T2, SARS-CoV-2 Spike (S) protein, strain BetaCoV/Wuhan-Hu-1/2019, full length (SARS-CoV-2 Wuhan-Hu-1, UniProt P0DTC2 14-1273); experiment: cell-based or functional assay
# [4] = target: T3, SARS-CoV-1 RBD (Sino Biological) (SARS-CoV-1, UniProt P59594 306-527); experiment: ELISA, antigen coated on the plate, OD 405 nm
# [5] = target: T1, SARS-CoV-2 RBD (produced in house in …); experiment: ELISA, antigen coated on the plate, OD 405 nm; remark: listed apart in the source
# [6] = target: T3, SARS-CoV-1 RBD (Sino Biological); experiment: ELISA, antigen coated on the plate, OD 405 nm; remark: listed apart in the source
# [7] = target: T1, SARS-CoV-2 RBD (produced in house in …); experiment: ELISA, antigen coated on the plate, OD 405 nm; remark: listed apart in the source
# [8] = target: T3, SARS-CoV-1 RBD (Sino Biological); experiment: BLI (Octet), antibody on protein A sensors, RBD in solution, global fit
# [9] = target: T1, SARS-CoV-2 RBD (produced in house in …); experiment: as above
# [10] = target: His-tagged RBD of SARS-CoV-1 (SARS-CoV-1, UniProt P59594 306-527)
# [11] = target: His-tagged RBD of SARS-CoV-2 (SARS-CoV-2 BetaCoV/Wuhan-Hu-1/2019, UniProt P0DTC2 331-550)
# [12] = target: T2, SARS-CoV-2 Spike (S) protein, strain …; experiment: flow cytometry, ExpiCHO cells expressing SARS-CoV-2 S; % positive cells
# [13] = target: SARS-CoV-1 Spike (S) protein, strain SARS, on ExpiCHO cells (SARS-CoV (SARS-CoV-1), strain SARS, UniProt P59594 14-1255); experiment: flow cytometry, ExpiCHO cells expressing SARS-CoV-1 S; % positive cells
# [14] = target: T2, SARS-CoV-2 Spike (S) protein, strain …
# [15] = target: T1, SARS-CoV-2 RBD (produced in house in …); experiment: ELISA, antigen coated on the plate, OD 405 nm; remark: listed apart in the source
# [16] = target: T1, SARS-CoV-2 RBD (produced in house in …); experiment: ELISA, antigen coated on the plate, OD 405 nm; remark: listed apart in the source
# [17] = target: T4, SARS-CoV-1 RBD (Sino Biological) (SARS-CoV-1, UniProt P59594 306-527); experiment: ELISA, antigen coated on the plate, OD 405 nm; remark: listed apart in the source
# [18] = target: T4, SARS-CoV-1 RBD (Sino Biological); experiment: ELISA, antigen coated on the plate, OD 405 nm; remark: listed apart in the source
binder,measurement,setting,value
B1,EC50 (read off the curve),[1],~0.2 µg/mL
same,EC50 (read off the curve),[2],~0.2 µg/mL
B2,"Percent neutralization of infection, dilution 2",[3],6%
same,"Percent neutralization of infection, dilution 6",[3],5%
same,"Percent neutralization of infection, dilution 18",[3],2%
same,"Percent neutralization of infection, dilution 54",[3],12%
B3,EC50 (read off the curve),[4],~0.03 µg/mL
same,EC50 (read off the curve),[5],~0.09 µg/mL
same,EC50 (read off the curve),[6],~0.03 µg/mL
same,EC50 (read off the curve),[7],~0.09 µg/mL
B4,Kd,[8],< 0.001 nM
same,Kd,[9],23.6 nM
same,Kd,[10],< 0.001 nM
same,Kd,[11],23.6 nM
same,EC50 (read off the curve),[12],~0.4 µg/mL
same,EC50 (read off the curve),[13],~0.001 µg/mL
same,EC50,[14],0.383 µg/mL
B5,"Percent neutralization of infection, dilution 2",[3],-46%
same,"Percent neutralization of infection, dilution 6",[3],19%
same,"Percent neutralization of infection, dilution 18",[3],32%
same,"Percent neutralization of infection, dilution 54",[3],16%
B6,"Percent neutralization of infection, dilution 2",[3],-21%
same,"Percent neutralization of infection, dilution 6",[3],25%
same,"Percent neutralization of infection, dilution 18",[3],-22%
same,"Percent neutralization of infection, dilution 54",[3],7%
B7,EC50 (read off the curve),[15],~0.1 µg/mL
same,EC50 (read off the curve),[16],~0.1 µg/mL
B8,EC50 (read off the curve),[13],~0.2 µg/mL
B9,EC50 (read off the curve),[17],~0.08 µg/mL
same,EC50 (read off the curve),[18],~0.08 µg/mL
B10,"Percent neutralization of infection, dilution 2",[3],-19%
same,"Percent neutralization of infection, dilution 6",[3],15%
same,"Percent neutralization of infection, dilution 18",[3],-9%
same,"Percent neutralization of infection, dilution 54",[3],6%
B11,EC50 (read off the curve),[13],~0.02 µg/mL
